The text below walks through data of paper PMC4710668, “Bioactivation of food genotoxicants 5-hydroxymethylfurfural and furfuryl alcohol by sulfotransferases from human, mouse and rat: a comparative study” (Archives of Toxicology, 2014).

What all share (experiment): HMF sulfoconjugation assay
Holding throughout (conditions): other: catalytic efficiency of HMF sulfoconjugation; pH 7.4

Series [1] relates to T1, O=Cc1ccc(CO)o1.
T1 construct: made in house; host or cells: Salmonella typhimurium TA1538 (cytosolic fraction, not purified)
Type of series: biochemical, human. The protocol: (§1) Cytosolic fractions containing individual SULT forms were prepared from transgenic S. typhimurium TA1538. Table S1 in the Supplementary Material provides a summary of the thirty SULTs used in the current study together with references describing the cloning of the respective S. typhimurium TA1538 strains. The expressed SULT forms are denoted with the prefixes h, m and r for human, mouse and rat enzymes, respectively. Bacteria were grown in Luria Broth medium containing ampicillin (100 µg/ml) by stirring for 8 h at 200 revolutions/min at 37 °C. The bacterial suspensions were centrifuged at 5,000 g for 10 min. […] The protein concentrations were determined according to a bicinchoninic acid (BCA) assay protocol. […]
(§2) The reactions were conducted in mixtures of 100 µl containing 25–200 µg protein, 50 mM potassium phosphate buffer (pH 7.4), 5 mM MgCl2, 50 µM PAPS and different concentrations of HMF at 37 °C. Preliminary experiments ensured that measurements were recorded under ‘linear’ conditions, i.e., doubling of protein concentration or incubation time was doubling the amount of sulfate ester formed. […]
(§3) SMF concentrations of the clear supernatants were analyzed by UPLC-MS/MS. The protocol was adapted from the quantification of SMF in plasma samples of HMF-treated mice (Monien et al. [2009]). […]

For series [2], the system named is T2, O=Cc1ccc(CO)o1.
T2 construct: made in house; host or cells: Salmonella typhimurium TA1538 (cytosolic fraction, enzyme not purified)
The format is biochemical, mouse. The protocol: as §1, §2, §3

Series [3] has as its system T2, O=Cc1ccc(CO)o1. Type of series: biochemical, rat. The protocol: as §1, §2, §3

rSult1b1 (Rattus norvegicus), sequence (chain, as listed by the source): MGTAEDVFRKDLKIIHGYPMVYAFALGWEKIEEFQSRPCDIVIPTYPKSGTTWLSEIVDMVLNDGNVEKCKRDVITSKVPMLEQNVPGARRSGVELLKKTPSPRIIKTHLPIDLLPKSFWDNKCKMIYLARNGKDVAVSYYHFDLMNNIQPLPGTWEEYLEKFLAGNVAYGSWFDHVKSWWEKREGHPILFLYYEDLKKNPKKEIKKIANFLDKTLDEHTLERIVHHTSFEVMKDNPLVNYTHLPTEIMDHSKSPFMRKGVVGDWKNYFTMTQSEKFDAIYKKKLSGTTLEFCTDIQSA
hSULT1B1 (Homo sapiens), sequence (chain, as listed by the source): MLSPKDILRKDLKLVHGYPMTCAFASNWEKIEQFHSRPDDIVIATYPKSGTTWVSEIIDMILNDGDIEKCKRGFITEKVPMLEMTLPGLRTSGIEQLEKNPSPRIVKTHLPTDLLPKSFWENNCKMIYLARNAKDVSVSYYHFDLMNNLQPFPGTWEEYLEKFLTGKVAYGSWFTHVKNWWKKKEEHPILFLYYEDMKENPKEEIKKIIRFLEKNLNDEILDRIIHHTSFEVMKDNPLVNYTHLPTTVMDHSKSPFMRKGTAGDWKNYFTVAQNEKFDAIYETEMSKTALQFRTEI
mSult1b1 (Mus musculus), sequence (chain, as listed by the source): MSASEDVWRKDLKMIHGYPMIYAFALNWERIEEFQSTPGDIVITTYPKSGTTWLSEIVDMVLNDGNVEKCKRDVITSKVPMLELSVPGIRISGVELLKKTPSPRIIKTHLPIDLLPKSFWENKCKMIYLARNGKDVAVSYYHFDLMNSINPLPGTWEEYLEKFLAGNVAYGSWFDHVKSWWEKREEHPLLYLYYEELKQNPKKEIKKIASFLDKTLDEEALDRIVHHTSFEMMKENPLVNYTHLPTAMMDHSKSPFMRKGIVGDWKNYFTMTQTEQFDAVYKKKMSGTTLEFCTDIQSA

Usually kcat/Km stands for the turnover number divided by the Michaelis constant. hSULT1B1 (Homo sapiens): the kcat/Km in the series on O=Cc1ccc(CO)o1 [1] is 0.31 M⁻¹ s⁻¹. Take mSult1b1 (Mus musculus): the kcat/Km in the series on O=Cc1ccc(CO)o1 [2] is 0.36 M⁻¹ s⁻¹.

As for rSult1b1 (Rattus norvegicus), the kcat/Km in the series with O=Cc1ccc(CO)o1 [3] worked out at 0.09 M⁻¹ s⁻¹.
